Measurements: patent US20240376151A1, “STAPLED PEPTIDES AND METHODS THEREOF” (FOG PHARMACEUTICALS, INC., priority 2022, published 2024)
Numbered stars: 1 amine (or outer) side, 2 acyl side, 3 side chain; on linkers, the order of the positions; unused ones are H or OH. Bridge positions count the residues as written; N and C are the ends. Ends that are not written are not given here. Phenylene(1,4-NHCOCH2)2 = O=C(C[*:1])Nc1ccc(NC(=O)C[*:2])cc1

How the values were obtained:
[1] = target: T1, WWP1 (Homo sapiens, UniProt Q9H0M0); experiment: Naive Library Presenter Screening (phage, NGS), WWP1 (construct not given); type: binding; conditions: for interaction data at Target Concentration 10: WWP1 target concentration 10 nM; for interaction data at Target Concentration 30: WWP1 target concentration 30 nM; for interaction data at Target Concentration 100: WWP1 target concentration 100 nM; for interaction data at Target Concentration 300: WWP1 target concentration 300 nM; for interaction data at Target Concentration 1000: WWP1 target concentration 1000 nM
T1 construct: GST-TEV (N, cleaved yes); made in house; host or cells: Escherichia coli BL21 (DE3)

[2] = target: T2, WWP2^HECT (Homo sapiens, UniProt O00308); experiment: Naive Library Presenter Screening (phage, NGS), WWP2^HECT; type: binding; conditions: for interaction data at Target Concentration 10: WWP2 target concentration 10 nM; for interaction data at Target Concentration 30: WWP2 target concentration 30 nM; for interaction data at Target Concentration 100: WWP2 target concentration 100 nM; for interaction data at Target Concentration 300: WWP2 target concentration 300 nM; for interaction data at Target Concentration 1000: WWP2 target concentration 1000 nM
T2 construct: GST-TEV (N, cleaved yes); made in house; host or cells: Escherichia coli BL21 (DE3)
T2 sequence (O00308 492-865): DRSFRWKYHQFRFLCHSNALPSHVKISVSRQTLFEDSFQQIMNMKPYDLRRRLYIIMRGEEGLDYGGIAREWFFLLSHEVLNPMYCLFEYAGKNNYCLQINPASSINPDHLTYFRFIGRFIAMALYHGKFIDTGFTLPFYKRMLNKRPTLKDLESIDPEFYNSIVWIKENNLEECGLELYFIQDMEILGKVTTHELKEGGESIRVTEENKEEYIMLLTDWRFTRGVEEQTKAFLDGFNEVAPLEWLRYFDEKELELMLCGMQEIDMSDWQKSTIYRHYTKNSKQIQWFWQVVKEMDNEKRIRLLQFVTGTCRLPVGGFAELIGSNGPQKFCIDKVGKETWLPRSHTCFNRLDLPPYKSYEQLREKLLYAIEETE

| Sequence | interaction data at Target Concentration 10 [1] | interaction data at Target Concentration 30 [1] | interaction data at Target Concentration 100 [1] | interaction data at Target Concentration 300 [1] | interaction data at Target Concentration 1000 ([1]; first column) | interaction data at Target Concentration 1000 ([1]; second column) | interaction data at Target Concentration 10 [2] | interaction data at Target Concentration 30 [2] | interaction data at Target Concentration 100 [2] | interaction data at Target Concentration 300 [2] | interaction data at Target Concentration 1000 ([2]; first column) | interaction data at Target Concentration 1000 ([2]; second column) |
| --- | --- | --- | --- | --- | --- | --- | --- | --- | --- | --- | --- | --- |
| DPAQQTCSQAAWVCSIL (linker 7-14 via Phenylene(1,4-NHCOCH2)2; not fully specified (C-terminus)) | 0 | 55 | 443 | 363 | 397 | 477 |  |  |  |  |  |  |
| DPAIIRCTSAAMMCHNT (linker 7-14 via Phenylene(1,4-NHCOCH2)2) | 0 | 4 | 0 | 55 | 183 | 169 |  |  |  |  |  |  |
| DPAIQRCSTAAQVCRYL (linker 7-14 via Phenylene(1,4-NHCOCH2)2) | 0 | 6 | 202 | 236 |  | 197 |  |  |  |  |  |  |
| DPATMNCTLAANICHSH (linker 7-14 via Phenylene(1,4-NHCOCH2)2 (inferred); not fully specified (C-terminus)) | 0 | 0 | 3 | 363 | 458 | 197 |  |  |  |  |  |  |
| DPAFIQCTHAANMCHSS (linker 7-14 via Phenylene(1,4-NHCOCH2)2) | 0 | 3 | 43 |  | 336 | 562 |  |  |  |  |  |  |
| DPALQTCMDAAQVCRLL (linker 7-14 via Phenylene(1,4-NHCOCH2)2) | 0 | 0 | 107 | 163 |  | 197 |  |  |  |  |  |  |
| DPAQLSCTVAAHVCHST (linker 7-14 via Phenylene(1,4-NHCOCH2)2; not fully specified (C-terminus)) | 0 | 25 | 0 | 254 | 275 | 140 |  |  |  |  |  |  |
| DPAFHYCTMAANMCHQD (linker 7-14 via Phenylene(1,4-NHCOCH2)2) | 0 | 0 | 3 | 73 |  | 169 |  |  |  |  |  |  |
| DPARLDCTAAAYVCSVL (linker 7-14 via Phenylene(1,4-NHCOCH2)2) | 0 | 0 | 109 | 91 |  | 140 |  |  |  |  |  |  |
| DPAFLTCTLAASLCHQD (linker 7-14 via Phenylene(1,4-NHCOCH2)2) | 0 | 0 | 0 | 145 |  | 253 |  |  |  |  |  |  |
| DPAWMACAWAANLCHSS (linker 7-14 via Phenylene(1,4-NHCOCH2)2) | 0 | 18 | 14 | 91 | 244 | 253 |  |  |  |  |  |  |
| DPALASCQQAAWVCEVL (linker 7-14 via Phenylene(1,4-NHCOCH2)2) | 0 | 43 | 173 | 291 |  | 309 |  |  |  |  |  |  |
| DPAIFDCEFAAHVCSVL (linker 7-14 via Phenylene(1,4-NHCOCH2)2) | 0 | 26 |  | 436 | 275 | 618 |  |  |  |  |  |  |
| DPAHTACNQAARVCHTL (linker 7-14 via Phenylene(1,4-NHCOCH2)2) | 1 | 4 | 104 | 200 |  | 253 |  |  |  |  |  |  |
| DPATETCAQAAVLCHSD (linker 7-14 via Phenylene(1,4-NHCOCH2)2 (inferred); not fully specified (C-terminus)) | 1 | 12 | 3 | 200 | 519 | 449 |  |  |  |  |  |  |
| DPATHVCTTAA VMCHQT (DPATHVCTTAAVMCHQT; not fully specified; cysteine pairing not given here) | 0 | 0 | 6 | 327 | 275 | 365 |  |  |  |  |  |  |
| DPAIMSCMYAAEVCRVL (linker 7-14 via Phenylene(1,4-NHCOCH2)2) | 0 | 1 | 147 | 109 | 183 | 253 |  |  |  |  |  |  |
| DPAVWECRWAAFQCWLD (linker 7-14 via Phenylene(1,4-NHCOCH2)2 (inferred); not fully specified (C-terminus)) |  |  |  |  |  |  | 0 | 0 | 88 | 86 | 97 | 107 |
| DPANWDCQQAAWLCIIQ (DPANWDCQQAAWLCIIQ-NH2; linker 7-14 via Phenylene(1,4-NHCOCH2)2; N-terminus assumed; SMILES CC[C@H](C)[C@H](NC(=O)[C@@H]1CSCC(=O)Nc2ccc(cc2)NC(=O)CSC[C@H](NC(=O)[C@H](CC(=O)O)NC(=O)[C@H](Cc2c[nH]c3ccccc23)NC(=O)[C@H](CC(N)=O)NC(=O)[C@H](C)NC(=O)[C@@H]2CCCN2C(=O)[C@@H](N)CC(=O)O)C(=O)N[C@@H](CCC(N)=O)C(=O)N[C@@H](CCC(N)=O)C(=O)N[C@@H](C)C(=O)N[C@@H](C)C(=O)N[C@@H](Cc2c[nH]c3ccccc23)C(=O)N[C@@H](CC(C)C)C(=O)N1)C(=O)N[C@H](C(=O)N[C@@H](CCC(N)=O)C(N)=O)[C@@H](C)CC) |  |  |  |  |  |  | 0 | 0 | 0 | 8 | 7 | 27 |
| DPAIQNCRSAADVCMFF (linker 7-14 via Phenylene(1,4-NHCOCH2)2; not fully specified (C-terminus)) |  |  |  |  |  |  | 0 | 65 | 96 | 109 | 117 | 127 |
| DPATWDCQQAAHHCWVL (linker 7-14 via Phenylene(1,4-NHCOCH2)2 (inferred); not fully specified (C-terminus)) |  |  |  |  |  |  | 0 | 0 | 2 | 23 | 35 | 66 |
